Values joined by “and” are separate entries in the source; they are usually repeats but may differ in a detail not shown here. Equal entries are not always repeated.
Target: IgE-GLT1-NP (IgE leader, lumazine synthase, linker, eOD-GT8; self-assembling 60mer nanoparticle) (Aquifex aeolicus lumazine synthase fused to HIV-1 gp120 fragment)
Assay: immunogold TEM of muscle sections from mice immunized with DNA-encoded IgE-GLT1-NP (VRC01 + anti-human 6 nm gold)

VRC01 antibody (NIH AIDS Reagent)
visible copies of VRC01 binding: 11 copies and 17 copies

— patent US20220047695A1
